From US20120324606A1 come the findings set out here.

Assay [1] has as its target BBMV proteins (receptor binding sites) in brush border membrane vesicles from European corn borer (ECB; Ostrinia nubilalis) larval midgut. As to the kind of experiment: heterologous competition: unlabeled Cry1Be against 0.5 nM 125I Cry1Ab on ECB BBMVs; reference is homologous Cry1Ab.
The target in assay [2] is BBMV proteins (receptor binding sites) in brush border membrane vesicles from fall armyworm (FAW; Spodoptera frugiperda) larval midgut. The assay can be described thus: homologous competition: unlabeled Cry1Be against 0.5 nM 125I Cry1Be on FAW BBMVs.
The target is the same in assay [3]. The assay can be described thus: heterologous competition: unlabeled Cry1Be against 0.5 nM 125I Cry1Ab on FAW BBMVs.
Assay [4] shares this target. The assay can be described thus: heterologous competition: unlabeled Cry1Be against 0.5 nM 125I Cry1Ab on FAW BBMVs; reference is homologous Cry1Ab.
In assay [5] the target is BBMV proteins (receptor binding sites) in brush border membrane vesicles from European corn borer (ECB; Ostrinia nubilalis) larval midgut. As to the kind of experiment: heterologous competition: unlabeled Cry1Be against 0.5 nM 125I Cry1Ab on ECB BBMVs.

B1: Cry1Be insecticidal protein (purified truncated Cry toxin) (ligand)
chain: IEDSLCIAEGNNIDPFVSASTVQTGINIAGRILGVLGVPFAGQIASFYSFLVGELWPRGRDPWEIFLEHVEQLIRQQVTENTRDTALARLQGLGNSFRAYQQSLEDWLENRDDARTRSVLYTQYIALELDFLNAMPLFAIRNQEVPLLMVYAQAANLHLLLLRDASLFGSEFGLTSQEIQRYYERQVEKTREYSDYCARWYNTGLNNLRGTNAESWLRYNQFRRDLTLGVLDLVALFPSYDTRVYPMNTSAQLTREIYTDPIGRTNAPSGFASTNWFNNNAPSFSAIEAAVIRPPHLLDFPEQLTIFSVLSRWSNTQYMNYWVGHRLESRTIRGSLSTSTHGNTNTSINPVTLQFTSRDVYRTESFAGINILLTTPVNGVPWARFNWRNPLNSLRGSLLYTIGYTGVGTQLFDSETELPPETTERPNYESYSHRLSNIRLISGNTLRAPVYSWTHRSADRTNTISSDSITQIPLVKSFNLNSGTSVVSGPGFTGGDIIRTNVNGSVLSMGLNFNNTSLQRYRVRVRYAASQTMVLRVTVGGSTTFDQGFPSTMSANESLTSQSFRFAEFPVGISASGSQTAGISISNNAGRQTFHFDKIEFIPITAT
modifications: ^125I iodination (Iodo-Beads) in the radiolabeled form only; sites not stated
B1 gave a fold higher concentration for 50% displacement, against Cry1Ab in assay [1] of 80 fold. Moreover, the IC50 in assay [2] was 2 nM; in assay [3], 300 nM; in assay [5], 40 nM. Also, the fold greater concentration for 50% displacement, against Cry1Ab in assay [4] came out at 1000 fold.
